Reference: article PMC8298264, “Function of cofactor Akirin2 in the regulation of gene expression in model human neutrophil-like HL60 cells” (Bioscience Reports, 2021)

System: human HL60 cells
Test: SWATH-MS proteomics, differential protein representation, akirin2 KO vs WT HL60 cells
Format: cell-based
Conditions: akirin2 KO vs WT HL60 cells
Summary of the method: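 Proteins from WT and akirin2 KO HL60 cells (n=3 biological replicates) were FASP trypsin-digested and analyzed by SWATH-MS DIA with variable windows against an IDA-derived spectral library. Identifications at 1% global FDR; quantities normalized to total area sums of all detected proteins.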

[1] = sheet "Under-represented in KO"
[2] = SWATH-MS, under-represented in KO
[3] = SWATH-MS, sheet "Under-represented in KO"

Molecule	Fold Change [2]	Log (Fold Change) [2]	Fold Change [3]	Log (Fold Change) [3]	other results
sp¦P00966¦ASSY_HUMAN (protein, UniProt P00966 1-412, looked up) Argininosuccinate synthase: MSSKGSVVLAYSGGLDTSCILVWLKEQGYDVIAYLANIGQKEDFEEARKKALKLGAKKVFIEDVSREFVEEFIWPAIQSSALYEDRYLLGTSLARPCIARKQVEIAQREGAKYVSHGATGKGNDQVRFELSCYSLAPQIKVIAPWRMPEFYNRFKGRNDLMEYAKQHGIPIPVTPKNPWSMDENLMHISYEAGILENPKNQAPPGLYTKTQDPAKAPNTPDILEIEFKKGVPVKVTNVKDGTTHQTSLELFMYLNEVAGKHGVGRIDIVENRFIGMKSRGIYETPAGTILYHAHLDIEAFTMDREVRKIKQGLGLKFAELVYTGFWHSPECEFVRHCIAKSQERVEGKVQVSVLKGQVYILGRESPLSLYNEELVSMNVQGDYEPTDATGFININSLRLKEYHRLQSKVTAK	–	–	–	–	Fold Change [1]: 0.3334; Log (Fold Change) [1]: -0.477
sp¦P49916¦DNLI3_HUMAN (protein, UniProt P49916 43-1009, looked up) DNA ligase 3: LLHGHPLFLRRKPVLSFQGSHLRSRATYLVFLPGLHVGLCSGPCEMAEQRFCVDYAKRGTAGCKKCKEKIVKGVCRIGKVVPNPFSESGGDMKEWYHIKCMFEKLERARATTKKIEDLTELEGWEELEDNEKEQITQHIADLSSKAAGTPKKKAVVQAKLTTTGQVTSPVKGASFVTSTNPRKFSGFSAKPNNSGEAPSSPTPKRSLSSSKCDPRHKDCLLREFRKLCAMVADNPSYNTKTQIIQDFLRKGSAGDGFHGDVYLTVKLLLPGVIKTVYNLNDKQIVKLFSRIFNCNPDDMARDLEQGDVSETIRVFFEQSKSFPPAAKSLLTIQEVDEFLLRLSKLTKEDEQQQALQDIASRCTANDLKCIIRLIKHDLKMNSGAKHVLDALDPNAYEAFKASRNLQDVVERVLHNAQEVEKEPGQRRALSVQASLMTPVQPMLAEACKSVEYAMKKCPNGMFSEIKYDGERVQVHKNGDHFSYFSRSLKPVLPHKVAHFKDYIPQAFPGGHSMILDSEVLLIDNKTGKPLPFGTLGVHKKAAFQDANVCLFVFDCIYFNDVSLMDRPLCERRKFLHDNMVEIPNRIMFSEMKRVTKALDLADMITRVIQEGLEGLVLKDVKGTYEPGKRHWLKVKKDYLNEGAMADTADLVVLGAFYGQGSKGGMMSIFLMGCYDPGSQKWCTVTKCAGGHDDATLARLQNELDMVKISKDPSKIPSWLKVNKIYYPDFIVPDPKKAAVWEITGAEFSKSEAHTADGISIRFPRCTRIRDDKDWKSATNLPQLKELYQLSKEKADFTVVAGDEGSSTTGGSSEENKGPSGSAVSRKAPSKPSASTKKAEGKLSNSNSKDGNMQTAKPSAMKVGEKLATKSSPVKVGEKRKAADETLCQTKVLLDIFTGVRLYLPPSTPDFSRLRRYFVAFDGDLVQEFDMTSATHVLGSRDKNPAAQQVSPEWIWACIRKRRLVAPC	0.7417	-0.1297	–	–	–
sp¦Q9NVI7¦ATD3A_HUMAN (protein, UniProt Q9NVI7 2-586, looked up) ATPase family AAA …: SWLFGINKGPKGEGAGPPPPLPPAQPGAEGGGDRGLGDRPAPKDKWSNFDPTGLERAAKAARELEHSRYAKDALNLAQMQEQTLQLEQQSKLKEYEAAVEQLKSEQIRAQAEERRKTLSEETRQHQARAQYQDKLARQRYEDQLKQQQLLNEENLRKQEESVQKQEAMRRATVEREMELRHKNEMLRVEAEARARAKAERENADIIREQIRLKAAEHRQTVLESIRTAGTLFGEGFRAFVTDWDKVTATVAGLTLLAVGVYSAKNATLVAGRFIEARLGKPSLVRETSRITVLEALRHPIQVSRRLLSRPQDALEGVVLSPSLEARVRDIAIATRNTKKNRSLYRNILMYGPPGTGKTLFAKKLALHSGMDYAIMTGGDVAPMGREGVTAMHKLFDWANTSRRGLLLFVDEADAFLRKRATEKISEDLRATLNAFLYRTGQHSNKFMLVLASNQPEQFDWAINDRINEMVHFDLPGQEERERLVRMYFDKYVLKPATEGKQRLKLAQFDYGRKCSEVARLTEGMSGREIAQLAVSWQATAYASEDGVLTEAMMDTRVQDAVQQHQQKMCWLKAEGPGRGDEPSPS	–	–	0.7506	-0.1246	–
sp¦Q6RFH5¦WDR74_HUMAN (protein, UniProt Q6RFH5 1-385, looked up) WD repeat-containing protein …: MAAAAARWNHVWVGTETGILKGVNLQRKQAANFTAGGQPRREEAVSALCWGTGGETQMLVGCADRTVKHFSTEDGIFQGQRHCPGGEGMFRGLAQADGTLITCVDSGILRVWHDKDKDTSSDPLLELRVGPGVCRMRQDPAHPHVVATGGKENALKIWDLQGSEEPVFRAKNVRNDWLDLRVPIWDQDIQFLPGSQKLVTCTGYHQVRVYDPASPQRRPVLETTYGEYPLTAMTLTPGGNSVIVGNTHGQLAEIDLRQGRLLGCLKGLAGSVRGLQCHPSKPLLASCGLDRVLRIHRIQNPRGLEHKVYLKSQLNCLLLSGRDNWEDEPQEPQEPNKVPLEDTETDELWASLEAAAKRKLSGLEQPQGALQTRRRKKKRPGSTSP	–	–	0.7453	-0.1277	–
sp¦P07954¦FUMH_HUMAN (protein, UniProt P07954 45-510, looked up) Fumarate hydratase, …: ASQNSFRIEYDTFGELKVPNDKYYGAQTVRSTMNFKIGGVTERMPTPVIKAFGILKRAAAEVNQDYGLDPKIANAIMKAADEVAEGKLNDHFPLVVWQTGSGTQTNMNVNEVISNRAIEMLGGELGSKIPVHPNDHVNKSQSSNDTFPTAMHIAAAIEVHEVLLPGLQKLHDALDAKSKEFAQIIKIGRTHTQDAVPLTLGQEFSGYVQQVKYAMTRIKAAMPRIYELAAGGTAVGTGLNTRIGFAEKVAAKVAALTGLPFVTAPNKFEALAAHDALVELSGAMNTTACSLMKIANDIRFLGSGPRSGLGELILPENEPGSSIMPGKVNPTQCEAMTMVAAQVMGNHVAVTVGGSNGHFELNVFKPMMIKNVLHSARLLGDASVSFTENCVVGIQANTERINKLMNESLMLVTALNPHIGYDKAAKIAKTAHKNGSTLKETAIELGYLTAEQFDEWVKPKDMLGPK	–	–	0.754	-0.1226	–
sp¦P36957¦ODO2_HUMAN (protein, UniProt P36957 68-453, looked up) Dihydrolipoyllysine-residue …: DDLVTVKTPAFAESVTEGDVRWEKAVGDTVAEDEVVCEIETDKTSVQVPSPANGVIEALLVPDGGKVEGGTPLFTLRKTGAAPAKAKPAEAPAAAAPKAEPTAAAVPPPAAPIPTQMPPVPSPSQPPSGKPVSAVKPTVAPPLAEPGAGKGLRSEHREKMNRMRQRIAQRLKEAQNTCAMLTTFNEIDMSNIQEMRARHKEAFLKKHNLKLGFMSAFVKASAFALQEQPVVNAVIDDTTKEVVYRDYIDISVAVATPRGLVVPVIRNVEAMNFADIERTITELGEKARKNELAIEDMDGGTFTISNGGVFGSLFGTPIINPPQSAILGMHGIFDRPVAIGGKVEVRPMMYVALTYDHRLIDGREAVTFLRKIKAAVEDPRVLLLDL	–	–	0.7478	-0.1262	–
sp¦Q1KMD3¦HNRL2_HUMAN (protein, UniProt Q1KMD3 1-747, looked up) Heterogeneous nuclear …: MEVKRLKVTELRSELQRRGLDSRGLKVDLAQRLQEALDAEMLEDEAGGGGAGPGGACKAEPRPVAASGGGPGGDEEEDEEEEEEDEEALLEDEDEEPPPAQALGQAAQPPPEPPEAAAMEAAAEPDASEKPAEATAGSGGVNGGEEQGLGKREEDEPEERSGDETPGSEVPGDKAAEEQGDDQDSEKSKPAGSDGERRGVKRQRDEKDEHGRAYYEFREEAYHSRSKSPLPPEEEAKDEEEDQTLVNLDTYTSDLHFQVSKDRYGGQPLFSEKFPTLWSGARSTYGVTKGKVCFEAKVTQNLPMKEGCTEVSLLRVGWSVDFSRPQLGEDEFSYGFDGRGLKAENGQFEEFGQTFGENDVIGCFANFETEEVELSFSKNGEDLGVAFWISKDSLADRALLPHVLCKNCVVELNFGQKEEPFFPPPEEFVFIHAVPVEERVRTAVPPKTIEECEVILMVGLPGSGKTQWALKYAKENPEKRYNVLGAETVLNQMRMKGLEEPEMDPKSRDLLVQQASQCLSKLVQIASRTKRNFILDQCNVYNSGQRRKLLLFKTFSRKVVVVVPNEEDWKKRLELRKEVEGDDVPESIMLEMKANFSLPEKCDYMDEVTYGELEKEEAQPIVTKYKEEARKLLPPSEKRTNRRNNRNKRNRQNRSRGQGYVGGQRRGYDNRAYGQQYWGQPGNRGGYRNFYDRYRGDYDRFYGRDYEYNRYRDYYRQYNRDWQSYYYHHPQDRDRYYRNYYGYQGYR	0.7447	-0.128	–	–	–
sp¦Q99986¦VRK1_HUMAN (protein, UniProt Q99986 1-396, looked up) Serine/threonine-protein …: MPRVKAAQAGRQSSAKRHLAEQFAVGEIITDMAKKEWKVGLPIGQGGFGCIYLADMNSSESVGSDAPCVVKVEPSDNGPLFTELKFYQRAAKPEQIQKWIRTRKLKYLGVPKYWGSGLHDKNGKSYRFMIMDRFGSDLQKIYEANAKRFSRKTVLQLSLRILDILEYIHEHEYVHGDIKASNLLLNYKNPDQVYLVDYGLAYRYCPEGVHKEYKEDPKRCHDGTIEFTSIDAHNGVAPSRRGDLEILGYCMIQWLTGHLPWEDNLKDPKYVRDSKIRYRENIASLMDKCFPEKNKPGEIAKYMETVKLLDYTEKPLYENLRDILLQGLKAIGSKDDGKLDLSVVENGGLKAKTITKKRKKEIEESKEPGVEDTEWSNTQTEEAIQTRSRTRKRVQK	0.7448	-0.128	–	–	–
sp¦P18859¦ATP5J_HUMAN (protein, UniProt P18859 33-108, looked up) ATP synthase peripheral stalk …: NKELDPIQKLFVDKIREYKSKRQTSGGPVDASSEYQQELERELFKLKQMFGNADMNTFPTFKFEDPKFEVIEKPQA	–	–	0.7532	-0.1231	–
sp¦P24752¦THIL_HUMAN (protein, UniProt P24752 34-427, looked up) Acetyl-CoA acetyltransferase, …: VSKPTLKEVVIVSATRTPIGSFLGSLSLLPATKLGSIAIQGAIEKAGIPKEEVKEAYMGNVLQGGEGQAPTRQAVLGAGLPISTPCTTINKVCASGMKAIMMASQSLMCGHQDVMVAGGMESMSNVPYVMNRGSTPYGGVKLEDLIVKDGLTDVYNKIHMGSCAENTAKKLNIARNEQDAYAINSYTRSKAAWEAGKFGNEVIPVTVTVKGQPDVVVKEDEEYKRVDFSKVPKLKTVFQKENGTVTAANASTLNDGAAALVLMTADAAKRLNVTPLARIVAFADAAVEPIDFPIAPVYAASMVLKDVGLKKEDIAMWEVNEAFSLVVLANIKMLEIDPQKVNINGGAVSLGHPIGMSGARIVGHLTHALKQGEYGLASICNGGGGASAMLIQKL	–	–	0.7481	-0.126	–
